# From patent US20210163947
# System: pdt-tagged sfGFP
substance,measurement,value
mf-Lon,signal decay of pdt-tagged sfGFP (protein degradation) on mixing extracts,Increasing the concentration of mf-Lon and supplying additional ATP (a co-substrate for the reaction) results in some signal decay
